According to patent US20180339017A1 (Merck Sharp & Dohme, published 2018):
No end group written: not given here.

Legend:
human glucagon receptor = human glucagon receptor (human, UniProt P47871 26-477); assay: cell-based or functional assay
human GLP-1 receptor = human GLP-1 receptor (human, UniProt P43220 24-463); assay: cell-based or functional assay

Chain of human glucagon receptor (P47871 26-477): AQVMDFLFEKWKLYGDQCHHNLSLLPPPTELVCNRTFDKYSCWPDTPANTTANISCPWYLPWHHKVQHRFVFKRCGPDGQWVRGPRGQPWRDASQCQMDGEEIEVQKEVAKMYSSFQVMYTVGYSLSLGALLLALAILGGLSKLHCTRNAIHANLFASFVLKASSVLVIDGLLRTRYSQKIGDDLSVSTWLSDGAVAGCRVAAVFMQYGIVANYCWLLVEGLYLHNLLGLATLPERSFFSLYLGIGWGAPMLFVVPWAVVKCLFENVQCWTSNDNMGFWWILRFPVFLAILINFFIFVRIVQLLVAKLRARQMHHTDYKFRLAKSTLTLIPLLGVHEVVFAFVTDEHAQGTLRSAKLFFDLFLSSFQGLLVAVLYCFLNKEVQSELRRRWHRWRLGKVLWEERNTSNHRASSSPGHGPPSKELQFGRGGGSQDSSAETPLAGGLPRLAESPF

B1: PD27 (peptide)
peptide: HSQGTFTSDYSKYLDELRAYDFVQWLMNT-NH2
For B1, the “EC50 hGCGR (cAMP activity assay)” value (human glucagon receptor) was 50 pM and the “EC50 hGLP1R (cAMP activity assay)” value (human GLP-1 receptor) was 30 pM.

B2: PD31 (peptide)
peptide: HSQGTFTSDYSKYLDSRRAQDFVQWLINY-NH2
With B2 the “EC50 hGCGR (cAMP activity assay)” value (human glucagon receptor) was 60 pM and the “EC50 hGLP1R (cAMP activity assay)” value (human GLP-1 receptor) was 40 pM.

B3: PD36 (peptide)
peptide: HSQGTFTSDYSKYLDSIRAQDFVQWLMDT-NH2
B3 was tested, and the “EC50 hGCGR (cAMP activity assay)” value (human glucagon receptor) was 40 pM and the “EC50 hGLP1R (cAMP activity assay)” value (human GLP-1 receptor) was 60 pM.

B4: PD43 (peptide)
peptide: HSQGTFFSDYSHWLDSRRAQDFVQWLMNT-NH2
In the case of B4, the “EC50 hGCGR (cAMP activity assay)” value (human glucagon receptor) is reported as 30 pM and the “EC50 hGLP1R (cAMP activity assay)” value (human GLP-1 receptor) is reported as 40 pM.

B5: PD44 (peptide)
peptide: HSQGTFTSDYSKYLDWRRAQDFVQWLQNT-NH2
With B5 the “EC50 hGCGR (cAMP activity assay)” value (human glucagon receptor) was 20 pM and the “EC50 hGLP1R (cAMP activity assay)” value (human GLP-1 receptor) was 10 pM.

B6: PD45 (peptide)
peptide: HSQGTFTSDYSKYLDSKRAHDFVQWLLNT-NH2
B6 was tested, and the “EC50 hGCGR (cAMP activity assay)” value (human glucagon receptor) was 30 pM and the “EC50 hGLP1R (cAMP activity assay)” value (human GLP-1 receptor) was 20 pM.

B7: PD48 (peptide)
peptide: HSQGTFTSDYSKYLDSRRAQDFVDWLLNA-NH2
With B7 the “EC50 hGCGR (cAMP activity assay)” value (human glucagon receptor) was 70 pM and the “EC50 hGLP1R (cAMP activity assay)” value (human GLP-1 receptor) was 20 pM.

B8: PD50 (peptide)
peptide: HSQGTFTSDYSKYLDSRRAQDFVDWLINS-NH2
With B8 the “EC50 hGCGR (cAMP activity assay)” value (human glucagon receptor) was 20 pM and the “EC50 hGLP1R (cAMP activity assay)” value (human GLP-1 receptor) was 10 pM.

B9: PD51 (peptide)
peptide: HSHGTFTSDYSKYLDSRRAQDFVQWLMTT-NH2
In the case of B9, the “EC50 hGCGR (cAMP activity assay)” value (human glucagon receptor) is reported as 30 pM and the “EC50 hGLP1R (cAMP activity assay)” value (human GLP-1 receptor) is reported as 20 pM.

B10: PD22 (peptide)
peptide: HSQGTFTSDYSKYLDSLMAQDFVQWLMST-NH2
For B10, the “EC50 hGCGR (cAMP activity assay)” value (human glucagon receptor) was 20 pM and the “EC50 hGLP1R (cAMP activity assay)” value (human GLP-1 receptor) was 30 pM.

B11: PD52 (peptide)
peptide: HSQGIFFSDYSKYLDSRRAQDFVQWLMNT-NH2
In the case of B11, the “EC50 hGCGR (cAMP activity assay)” value (human glucagon receptor) is reported as 30 pM and the “EC50 hGLP1R (cAMP activity assay)” value (human GLP-1 receptor) is reported as 20 pM.

B12: PD55 (peptide)
peptide: HSQGTFTSDYSKYLDMQRAHDFVQWLMNT-NH2
For B12, the “EC50 hGCGR (cAMP activity assay)” value (human glucagon receptor) was 10 pM and the “EC50 hGLP1R (cAMP activity assay)” value (human GLP-1 receptor) was 10 pM.

B13: PD56 (peptide)
peptide: HSQGTFTSDYSKYLDSRMAYDFVQWLMNT-NH2
In the case of B13, the “EC50 hGCGR (cAMP activity assay)” value (human glucagon receptor) is reported as 80 pM and the “EC50 hGLP1R (cAMP activity assay)” value (human GLP-1 receptor) is reported as 50 pM.

B14: PD57 (peptide)
peptide: HSQGTFTSDYSKYLDSRRAQDFVQWLLNQ-NH2
With B14 the “EC50 hGCGR (cAMP activity assay)” value (human glucagon receptor) was 20 pM and the “EC50 hGLP1R (cAMP activity assay)” value (human GLP-1 receptor) was 10 pM.

B15: PD58 (peptide)
peptide: HSQGTFFSDYSKYLDSRRAQDFVQWLLET-NH2
With B15 the “EC50 hGCGR (cAMP activity assay)” value (human glucagon receptor) was 30 pM and the “EC50 hGLP1R (cAMP activity assay)” value (human GLP-1 receptor) was 20 pM.

B16: PD59 (peptide)
peptide: HSQGTFTSDYSKYLDSRRAQDFVQWLLDS-NH2
With B16 the “EC50 hGCGR (cAMP activity assay)” value (human glucagon receptor) was 20 pM and the “EC50 hGLP1R (cAMP activity assay)” value (human GLP-1 receptor) was 10 pM.

B17: PD23 (peptide)
peptide: HSQGTFTSDYSKYLDWRRAQDFVQWLLNT-NH2
In the case of B17, the “EC50 hGCGR (cAMP activity assay)” value (human glucagon receptor) is reported as 30 pM and the “EC50 hGLP1R (cAMP activity assay)” value (human GLP-1 receptor) is reported as 50 pM.

B18: PD25 (peptide)
peptide: HSQGTFTSDYSKYLDARRAQDFVQWLIRT-NH2
With B18 the “EC50 hGCGR (cAMP activity assay)” value (human glucagon receptor) was 40 pM and the “EC50 hGLP1R (cAMP activity assay)” value (human GLP-1 receptor) was 20 pM.
